We go through 2 molecules from patent publication US20130122000A1 (TRELLIS BIOSCIENCE, published 2013).

One assay has as its target T1, HER3:heregulin complex (UniProt P21860 20-643; Q02297 177-241, limits assumed).
T1 construct: Non-covalent receptor-ligand complex, formed on the biosensor by adding heregulin to immobilised HER3 ECD; also called heregulin active complex with HER3; complex of HER3 ECD with heregulin
The assay can be described thus: FortéBio biosensor (BLI), HER3 ECD on amine surface loaded with heregulin at 10 ug/ml, antibody from 67 nM, 3-fold series; average (Stdev 113). As to the method:
The binding assay was repeated for two of the antibodies, 1G4 and 14B10 using the same FortéBio® method. HER3 ECD at 10-15 μg/ml was again captured onto the amine surface in the same buffer. Heregulin at 10 μg/ml was added to form the HER3:heregulin complex on the surface and the antibodies tested at 67 nM once again using three-fold dilution series and the data were fitted to determine binding constants.

For assay [1], the target named is HER3 on tumor cells (MCF-7, MB468) (UniProt P21860 20-1342, limits assumed). Description: cell-based or functional assay.
Sequence of HER3 on tumor cells (MCF-7, MB468) (P21860 20-1342 limits assumed): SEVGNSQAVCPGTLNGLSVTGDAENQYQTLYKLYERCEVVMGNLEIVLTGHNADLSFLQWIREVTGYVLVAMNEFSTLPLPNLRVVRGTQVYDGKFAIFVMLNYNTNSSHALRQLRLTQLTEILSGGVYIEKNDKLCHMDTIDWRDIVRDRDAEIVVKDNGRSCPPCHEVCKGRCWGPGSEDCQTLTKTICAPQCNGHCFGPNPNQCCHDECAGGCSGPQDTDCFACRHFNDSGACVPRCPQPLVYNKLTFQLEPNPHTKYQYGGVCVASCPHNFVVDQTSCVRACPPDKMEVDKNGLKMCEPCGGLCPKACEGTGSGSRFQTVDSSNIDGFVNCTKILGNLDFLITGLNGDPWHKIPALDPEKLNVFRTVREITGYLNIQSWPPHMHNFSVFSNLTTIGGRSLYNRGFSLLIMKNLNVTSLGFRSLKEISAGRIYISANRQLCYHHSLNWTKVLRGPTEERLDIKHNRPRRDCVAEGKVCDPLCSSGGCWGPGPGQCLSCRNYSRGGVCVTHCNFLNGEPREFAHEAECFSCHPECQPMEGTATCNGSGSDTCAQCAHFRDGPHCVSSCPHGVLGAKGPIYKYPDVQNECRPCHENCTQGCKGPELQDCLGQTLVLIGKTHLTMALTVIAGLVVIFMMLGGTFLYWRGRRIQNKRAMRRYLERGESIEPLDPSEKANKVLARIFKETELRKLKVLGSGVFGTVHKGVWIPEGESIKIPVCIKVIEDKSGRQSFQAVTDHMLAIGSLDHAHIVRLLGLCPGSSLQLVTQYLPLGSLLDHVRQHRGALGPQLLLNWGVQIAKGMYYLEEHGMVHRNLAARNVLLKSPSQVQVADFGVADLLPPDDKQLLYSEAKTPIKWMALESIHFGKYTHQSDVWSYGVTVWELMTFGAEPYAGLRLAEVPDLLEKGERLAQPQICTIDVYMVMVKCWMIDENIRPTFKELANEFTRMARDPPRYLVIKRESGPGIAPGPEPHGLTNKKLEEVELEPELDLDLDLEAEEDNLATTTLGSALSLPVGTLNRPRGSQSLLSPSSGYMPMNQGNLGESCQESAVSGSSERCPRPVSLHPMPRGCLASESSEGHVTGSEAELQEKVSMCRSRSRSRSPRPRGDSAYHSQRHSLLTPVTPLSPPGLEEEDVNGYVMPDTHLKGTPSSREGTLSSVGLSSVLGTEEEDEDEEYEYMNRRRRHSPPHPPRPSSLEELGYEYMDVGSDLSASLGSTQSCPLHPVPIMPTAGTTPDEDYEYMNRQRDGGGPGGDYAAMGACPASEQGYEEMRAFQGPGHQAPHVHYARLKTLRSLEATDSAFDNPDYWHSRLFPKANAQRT
The target in assay [2] is T2, HER3 extracellular domain (ECD) (UniProt P21860 20-643).
T2 construct: extracellular domain; Coupled to an amine-reactive biosensor surface at 10-15 ug/ml; also called HER3 ECD; ErbB3
T2 sequence (P21860 20-643 limits assumed): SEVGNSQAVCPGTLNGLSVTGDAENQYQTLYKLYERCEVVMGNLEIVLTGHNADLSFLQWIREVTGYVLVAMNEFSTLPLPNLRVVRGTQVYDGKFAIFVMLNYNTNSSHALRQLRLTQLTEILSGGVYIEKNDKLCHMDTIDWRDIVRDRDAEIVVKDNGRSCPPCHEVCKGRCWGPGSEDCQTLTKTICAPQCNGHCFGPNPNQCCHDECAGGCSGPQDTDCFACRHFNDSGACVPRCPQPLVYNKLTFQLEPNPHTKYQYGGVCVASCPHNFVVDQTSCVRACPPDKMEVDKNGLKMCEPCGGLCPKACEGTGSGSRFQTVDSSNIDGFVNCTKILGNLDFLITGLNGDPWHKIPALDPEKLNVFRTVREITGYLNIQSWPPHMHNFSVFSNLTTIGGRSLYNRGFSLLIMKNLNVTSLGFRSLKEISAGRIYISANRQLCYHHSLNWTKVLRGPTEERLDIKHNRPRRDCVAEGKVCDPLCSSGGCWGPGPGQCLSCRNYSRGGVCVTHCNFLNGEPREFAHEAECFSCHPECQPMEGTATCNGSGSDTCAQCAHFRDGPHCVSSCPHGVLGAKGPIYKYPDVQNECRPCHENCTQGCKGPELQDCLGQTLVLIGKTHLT
The assay can be described thus: FortéBio biosensor (BLI), HER3 ECD on amine-reactive surface, antibody in solution from 67 nM, 3-fold series; average (Stdev 2,660). How it is done: Of these, six of these murine antibodies were assayed quantitatively for their binding affinities to HER3 ECD according to the commercially available FortéBio® method. In this method, ECD at 10-15 μg/ml was captured onto an amine-reactive surface in 10 mM MES, pH 6.0 at 25° C. Binding capacity is tested by treating the surface with unlabeled antibody. As unlabeled antibody accumulates on the surface, the optical characteristics of the surface are changed, thus allowing measurement of mass accumulation without requiring labeling. This is a modification of the Biacore™ style analysis. The antibodies were tested at 67 nM as the highest concentration and diluted in a three-fold dilution series. Response data for the various concentrations were individually and globally fitted to determine the binding affinities.

In assay [3] the target is T2, HER3 extracellular domain (ECD). The assay can be described thus: FortéBio biosensor (BLI), HER3 ECD on amine-reactive surface; average (Stdev 111,000).

T1 sequence (P21860 20-643 limits assumed, one chain of several): as the sequence (P21860 20-643 limits assumed) above

B1: 1G4 mAb (antibody, V domains shown)
VH: GASVKMSCKASGYTFTDYVISWVKQRTGQGLEWIGEIYPGSGRYYHNEKFKGKATLTADKSSNTAYIQLSSLTSEDSAVYFCTRSLQRLRYFDVWGAGTTVTVSS
VL: QSPATLSVTPGDRVSLSCRASQSISDYLHWYQQKSHESPRLLIKYGSQSISGIPSRFSGSGSGTDFTLSISSVETEDFGMYFCQQSNSWPLTFGAGTKLELKR
notes: Murine monoclonal antibody from a hybridoma; also called IG4; antibody 1G4
Turning to B1, the dissociation constant (Kd) with HER3:heregulin complex worked out at 0.327 nM; in assay [2], 2.81 nM. The “IC50, inhibition of HER3 tyrosine phosphorylation in MCF-7 cells stimulated with heregulin” value in assay [1] was approximately 10 ng/mL.

B2: heregulin (ligand, UniProt Q02297-6 177-241, looked up)
chain: SHLVKCAEKEKTFCVNGGECFMVKDLSNPSRYLCKCPNEFTGDRCQNYVMASFYKHLGIEFMEAE
notes: also called HRG
As to B2, the Kd in assay [3] stood at 165 nM.
